Experiments:
[1] = target: human CD47 on the cell membrane surface of CD47 positive tumor cells (Raji, NUGC-4, Jurkat) (human) (UniProt Q08722); experiment: FACS on Raji cells, 0.5 µg/mL
[2] = target: human CD47 on the cell membrane surface of CD47 positive tumor cells (Raji, NUGC-4, Jurkat) (human) (UniProt Q08722); experiment: FACS on Raji cells, 0.05 µg/mL

Chain of human CD47 on the cell membrane surface of CD47 positive tumor cells (Raji, NUGC-4, Jurkat) (human) (Q08722 19-323): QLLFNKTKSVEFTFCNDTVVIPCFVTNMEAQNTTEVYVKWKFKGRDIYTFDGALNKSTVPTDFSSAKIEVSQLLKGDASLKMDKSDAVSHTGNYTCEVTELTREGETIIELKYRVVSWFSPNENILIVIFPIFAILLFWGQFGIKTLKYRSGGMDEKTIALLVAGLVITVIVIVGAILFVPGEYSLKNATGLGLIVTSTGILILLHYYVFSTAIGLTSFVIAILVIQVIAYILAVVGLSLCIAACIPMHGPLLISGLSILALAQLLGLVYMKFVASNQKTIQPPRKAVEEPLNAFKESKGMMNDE

Mean fluorescence intensity (multiple) [1]: 1 fold
Mean fluorescence intensity (multiple) [2]: 1 fold
Substance: isotype control antibody
